The results in this text go back to publication PMC6747193.

The experiment deals with C1QBP Recombinant Human Protein (gC1q-R) (human) (UniProt Q07021). Nature of the experiment: ELISA; solid-phase microplate competition: gC1q-R coated on wells; polyclonal antibodies against gC1q-R amino acids 76-104 or 221-249 added at 4 µg/mL 1 h before idInlB at 0.4 µg/mL; idInlB without antibodies as positive control; bound idInlB detected with anti-His polyclonal antibody.
UniProt Q07021, sequence (Q07021 74-282): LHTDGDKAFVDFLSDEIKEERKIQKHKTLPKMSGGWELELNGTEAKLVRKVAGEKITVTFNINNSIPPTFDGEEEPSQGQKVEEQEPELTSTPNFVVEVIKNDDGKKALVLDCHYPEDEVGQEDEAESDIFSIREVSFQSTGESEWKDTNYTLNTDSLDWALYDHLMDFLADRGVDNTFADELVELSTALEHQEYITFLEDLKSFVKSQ

Take “InlB internalin domain isoform idInlB9 (lineage I, from L. monocytogenes strain VIMHA015) (from UniProt P0DQD2 36-321) (domain or fragment)”: the fold decrease of binding with the antibody against gC1q-R amino acids 76-104, against idInlB9 without antibody was determined as 1.6 fold and the fold decrease of binding with the antibody against gC1q-R amino acids 221-249, against idInlB9 without antibody stood at 1.25 fold.
